Source: article PMC5737704, “The herpes viral transcription factor ICP4 forms a novel DNA recognition complex” (Nucleic Acids Research, 2017)

How the values were obtained:
[1] = target: T1, ICP4N (ICP4 DNA binding domain) (Herpes simplex virus 1, UniProt P08392 258-487); assay: SPR; 2 mM Mg2+; nanomolar Kd, value only in Fig 5C; SPR: 20 mM HEPES, 200 mM NaCl, 2 mM MgCl2, 0.05% Tween-20, pH 7.4, 25 C; NMR: 20 mM MES, 50 mM NaCl, 50 mM L-Arg, 50 mM L-Glu, 1 mM TCEP, 2 mM MgCl2, pH 6.6, 25 C; conditions: protein: recombinant; tags: N-terminal Strep-tag, HRV3C-cleaved (removed); chain copies: 2; label: 5' biotin on forward strand; blunt
T1 sequence: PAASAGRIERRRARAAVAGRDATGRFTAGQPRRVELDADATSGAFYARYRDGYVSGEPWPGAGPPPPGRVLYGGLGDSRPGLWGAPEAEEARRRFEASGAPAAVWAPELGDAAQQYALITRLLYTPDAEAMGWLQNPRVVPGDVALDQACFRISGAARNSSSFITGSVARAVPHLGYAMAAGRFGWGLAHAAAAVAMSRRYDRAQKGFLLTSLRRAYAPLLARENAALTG

[2] = target: the molecule itself; assay: SEC-MALS; 0.5 ml at 1 mg/ml on Superdex 75 or Superdex 200 10/300GL in 20 mM HEPES, 150 mM NaCl, 50 mM L-Arg, 50 mM L-Glu, 0.5 mM TCEP, pH 7.9; free protein and (ICP4N) with IE3_19mer DNA
[3] = target: T2, ICP4NdeltaIDR (ICP4deltaIDR) (Herpes simplex virus 1, UniProt P08392 288-487); assay: X-ray crystallography; 2.12 A; SPR: 20 mM HEPES, 200 mM NaCl, 2 mM MgCl2, 0.05% Tween-20, pH 7.4, 25 C; NMR: 20 mM MES, 50 mM NaCl, 50 mM L-Arg, 50 mM L-Glu, 1 mM TCEP, 2 mM MgCl2, pH 6.6, 25 C; conditions: protein: recombinant; tags: N-terminal Strep-tag, HRV3C-cleaved (removed); chain copies: 2; blunt
T2 sequence: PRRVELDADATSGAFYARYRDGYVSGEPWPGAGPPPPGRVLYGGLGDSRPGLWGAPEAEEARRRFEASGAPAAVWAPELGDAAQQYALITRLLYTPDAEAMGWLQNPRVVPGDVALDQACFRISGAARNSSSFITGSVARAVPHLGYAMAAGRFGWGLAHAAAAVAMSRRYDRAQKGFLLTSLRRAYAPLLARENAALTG

[4] = target: T1, ICP4N (ICP4 DNA binding domain); assay: X-ray crystallography; 2.28 A; SPR: 20 mM HEPES, 200 mM NaCl, 2 mM MgCl2, 0.05% Tween-20, pH 7.4, 25 C; NMR: 20 mM MES, 50 mM NaCl, 50 mM L-Arg, 50 mM L-Glu, 1 mM TCEP, 2 mM MgCl2, pH 6.6, 25 C; conditions: protein: recombinant; tags: N-terminal Strep-tag, HRV3C-cleaved (removed); chain copies: 2; blunt

B1: IE3_19mer, biotinylated (dsDNA)
DNA 1: CCGATCGTCCACACGGAGC
DNA 2: GCTCCGTGTGGACGATCGG
**Q.** Does B1 bind [1]?
**A.** Result: binds

B2: truncated ICP4 DNA binding domain, residues 288–487 (ICP4NΔIDR) (domain or fragment)
chain: T2 sequence
notes: Strep-tag removed with HRV3C protease; also called ICP4ΔIDR; ICP4NdIDR; source: E. coli T7 Express LysY, purified (Strep-Tactin, Superdex 75); not shown: Strep-tag, N-terminal, cleaved
**Q.** With B2 as the binder, how does the “stoichiometry N” value [2] read?
**A.** The value was 2.

B3: IE3_12mer (dsDNA)
DNA 1: CCGATCGTCCAC
DNA 2: GTGGACGATCGG
**Q.** Does B3 bind [3]?
**A.** Result: binds

B4: ICP4 DNA binding domain, residues 258–487 (ICP4N) (domain or fragment)
chain: T1 sequence
notes: gene synthesised, codon optimised for E. coli; Strep-tag removed with HRV3C protease; Homodimer by SEC-MALS, AUC and crystal structure; also called ICP4 DBD; source: E. coli T7 Express LysY, purified (Strep-Tactin, Superdex 75); not shown: Strep-tag, N-terminal, cleaved
**Q.** With B4 as the binder, how does the “stoichiometry N” value [2] read?
**A.** Its value is 2.

B5: IE3_19mer (dsDNA)
DNA 1: CCGATCGTCCACACGGAGC
DNA 2: GCTCCGTGTGGACGATCGG
**Q.** Does B5 bind [4]?
**A.** Result: binds
